The source of these data is patent US10221225B2, “Peptides and combination of peptides and scaffolds thereof for use in immunotherapy against colorectal carcinoma (CRC) and other cancers” (immatics biotechnologies GmbH, priority 2015, dated 2019).

The experiment concerns the target HLA-A*02:01 (Homo sapiens, UniProt P04439, D140Y/D185E/D98H/E176V/E277Q/G131W/G231S/I119V/I121R/I166T/I218V/L300P/L318F/N151K/N90K/P208A/P217A/Q86G/Q94H/R138H/R169H/T345S). Description: MHC binding assay (UV-ligand exchange, beta2m ELISA, peptide exchange yield). Particulars: MHC class I binding score; binding to HLA-A*02:01 ranged by peptide exchange yield (UV-ligand exchange, β2m ELISA). From the text: Candidate peptides for T cell based therapies according to the present invention were further tested for their MHC binding capacity (affinity). The individual peptide-MHC complexes were produced by UV-ligand exchange, where a UV-sensitive peptide is cleaved upon UV-irradiation, and exchanged with the peptide of interest as analyzed. Only peptide candidates that can effectively bind and stabilize the peptide-receptive MHC molecules prevent dissociation of the MHC complexes. To determine the yield of the exchange reaction, an ELISA was performed based on the detection of the light chain (β2m) of stabilized MHC complexes. The assay was performed as generally described in Rodenko et al. (Rodenko et al., 2006).
96 well MAXISorp plates (NUNC) were coated over night with 2 ug/ml streptavidin in PBS at room temperature, washed 4× and blocked for 1 h at 37° C. in 2% BSA containing blocking buffer. Refolded HLA-A*02:01/MLA-001 monomers served as standards, covering the range of 15-500 ng/ml. Peptide-MHC monomers of the UV-exchange reaction were diluted 100 fold in blocking buffer. Samples were incubated for 1 h at 37° C., washed four times, incubated with 2 ug/ml HRP conjugated anti-β2m for 1 h at 37° C., washed again and detected with TMB solution that is stopped with […]. Absorption was measured at 450 nm. Candidate peptides that show a high exchange yield (preferably higher than 50%, most preferred higher than 75%) are generally preferred for a generation and production of antibodies or fragments thereof, and/or T cell receptors or fragments thereof, as they show sufficient avidity to the MHC molecules and prevent dissociation of the MHC complexes.
As to “4 (RLAELTVDEFL; listed as Homo sapiens) [compound 4]”, the Peptide exchange result is recorded as “″+++″ (≥50 = +++)”. On to “6 (FLAELPGSLSL; listed as Homo sapiens) [compound 6]”, for which the Peptide exchange result is reported as “″+++″ (≥50 = +++)”.

“8 (ALMLQGVDLL; listed as Homo sapiens) [compound 8]”: the Peptide exchange result was “″+++″ (≥50 = +++)”. With “14 (FLDKPEDVLL; listed as Homo sapiens) [compound 14]” the entry was “″++″ (≥20% = ++)”; with “15 (LQLDKEFQL; listed as Homo sapiens) [compound 15]”, “″+++″ (≥50 = +++)”; with “16 (VLVDQSWVL; listed as Homo sapiens) [compound 16]”, “″+++″ (≥50 = +++)”. “20 (YLKDGDVML; listed as Homo sapiens) [compound 20]”: the Peptide exchange entry is on record as “″+++″ (≥50 = +++)”. For “23 (FLDANGHFV; listed as Homo sapiens) [compound 23]” the value was “″+++″ (≥50 = +++)”; for “24 (VLDGVLMEL; listed as Homo sapiens) [compound 24]”, “″+++″ (≥50 = +++)”. For “25 (SLADRLIGV; listed as Homo sapiens) [compound 25]” the value was “″++++″ (≥75% = ++++)”. In the case of “26 (GLASKENFSNVSL; listed as Homo sapiens) [compound 26]”, the Peptide exchange result is listed as “″++″ (≥20% = ++)”. In the case of “27 (LLADEDSSYL; listed as Homo sapiens) [compound 27]”, the Peptide exchange entry is given as “″++″ (≥20% = ++)”.

Regarding “28 (ALTEIQEFI; listed as Homo sapiens) [compound 28]”, the Peptide exchange entry is “″++++″ (≥75% = ++++)”. With “29 (QMLDVAIRV; listed as Homo sapiens) [compound 29]” the entry was “″+++″ (≥50 = +++)”; with “30 (GLSSAYGGL; listed as Homo sapiens) [compound 30]”, “″+″ (≥10% = +)”; with “33 (ALWEKNTHL; listed as Homo sapiens) [compound 33]”, “″+++″ (≥50 = +++)”. Consider “34 (ILLEKSVSV; listed as Homo sapiens) [compound 34]”, for which the Peptide exchange entry is listed as “″+++″ (≥50 = +++)”. As for “35 (KLLDLTVRI; listed as Homo sapiens) [compound 35]”, the Peptide exchange result is recorded as “″+++″ (≥50 = +++)”. “36 (GLLESPSIFNFTA; listed as Homo sapiens) [compound 36]”: the Peptide exchange result is reported as “″+++″ (≥50 = +++)”. With “40 (ALSNVIHKV; listed as Homo sapiens) [compound 40]” the entry was “″++″ (≥20% = ++)”. As for “41 (ILDDSFKLL; listed as Homo sapiens) [compound 41]”, the Peptide exchange entry is recorded as “″++″ (≥20% = ++)”. With “43 (TLDAAQPRV; listed as Homo sapiens) [compound 43]” the entry was “″++″ (≥20% = ++)”; with “44 (SLESKLTSV; listed as Homo sapiens) [compound 44]”, “″+++″ (≥50 = +++)”. For the substance “45 (ALAELLHGA; listed as Homo sapiens) [compound 45]”, the Peptide exchange result is on record as “″+++″ (≥50 = +++)”. For the substance “46 (GLDDRYSLV; listed as Homo sapiens) [compound 46]”, the Peptide exchange entry was “″+++″ (≥50 = +++)”.

“48 (FLDASDPAL; listed as Homo sapiens) [compound 48]”: the Peptide exchange result is recorded as “″++″ (≥20% = ++)”.

For “50 (TLMAEMHVV; listed as Homo sapiens) [compound 50]”, the Peptide exchange result is recorded as “″+++″ (≥50 = +++)”. Take “51 (QVWEIQHTV; listed as Homo sapiens) [compound 51]”: the Peptide exchange result was “″++″ (≥20% = ++)”. In the case of “52 (ALDSSNSMQTI; listed as Homo sapiens) [compound 52]”, the Peptide exchange entry was “″++″ (≥20% = ++)”.

Turning to “53 (FLLGSEIKL; listed as Homo sapiens) [compound 53]”, the Peptide exchange entry is given as “″+++″ (≥50 = +++)”. On to “54 (ALLNGEYLLAA; listed as Homo sapiens) [compound 54]”, for which the Peptide exchange entry is recorded as “″+++″ (≥50 = +++)”.

In the case of “56 (VLFTDEGVPKFL; listed as Homo sapiens) [compound 56]”, the Peptide exchange entry is on record as “″++″ (≥20% = ++)”. Consider “57 (NLLEKENYL; listed as Homo sapiens) [compound 57]”, for which the Peptide exchange entry is “″+++″ (≥50 = +++)”. Turning to “58 (AMADKMDMSL; listed as Homo sapiens) [compound 58]”, the Peptide exchange result is on record as “″++″ (≥20% = ++)”.

Regarding “60 (VLDEDEPRFL; listed as Homo sapiens) [compound 60]”, the Peptide exchange result was “″++″ (≥20% = ++)”. As for “61 (KLLKLFQGV; listed as Homo sapiens) [compound 61]”, the Peptide exchange result is listed as “″+++″ (≥50 = +++)”. Take “62 (YLAPENGYL; listed as Homo sapiens) [compound 62]”: the Peptide exchange result is “″++″ (≥20% = ++)”. On to “63 (KLFSILSTV; listed as Homo sapiens) [compound 63]”, for which the Peptide exchange entry was “″++″ (≥20% = ++)”. With “66 (GLDDGPDFL; listed as Homo sapiens) [compound 66]”, the Peptide exchange entry is given as “″++″ (≥20% = ++)”. As to “67 (SLNDLEKDVMLL; listed as Homo sapiens) [compound 67]”, the Peptide exchange entry was “″+++″ (≥50 = +++)”. With “68 (SILQFVHMV; listed as Homo sapiens) [compound 68]”, the Peptide exchange result is reported as “″+++″ (≥50 = +++)”. Take “69 (GMLNEAEGKAIKL; listed as Homo sapiens) [compound 69]”: the Peptide exchange entry is listed as “″++″ (≥20% = ++)”. As for “70 (MISELEVRL; listed as Homo sapiens) [compound 70]”, the Peptide exchange result is “″+++″ (≥50 = +++)”.

Turning to “71 (RLWTEIPTAI; listed as Homo sapiens) [compound 71]”, the Peptide exchange entry is recorded as “″+++″ (≥50 = +++)”. On to “72 (YLLDYPNNLL; listed as Homo sapiens) [compound 72]”, for which the Peptide exchange result is “″+++″ (≥50 = +++)”. In the case of “73 (YLFDIAVSM; listed as Homo sapiens) [compound 73]”, the Peptide exchange entry is reported as “″+++″ (≥50 = +++)”. Turning to “74 (YLMGFLHAV; listed as Homo sapiens) [compound 74]”, the Peptide exchange result is listed as “″+++″ (≥50 = +++)”. With “75 (EMIENIQSV; listed as Homo sapiens) [compound 75]” the entry was “″++″ (≥20% = ++)”; with “76 (YLIGEKQHYL; listed as Homo sapiens) [compound 76]”, “″+++″ (≥50 = +++)”; with “77 (SLLKRDFGA; listed as Homo sapiens) [compound 77]”, “″++″ (≥20% = ++)”. For “78 (ALDPELLLL; listed as Homo sapiens) [compound 78]”, the Peptide exchange result is recorded as “″++″ (≥20% = ++)”. For “79 (SLAADQLLKL; listed as Homo sapiens) [compound 79]” the value was “″++″ (≥20% = ++)”; for “80 (QVDEVVDIMRV; listed as Homo sapiens) [compound 80]”, “″++″ (≥20% = ++)”; for “81 (ALLSQQTHL; listed as Homo sapiens) [compound 81]”, “″+++″ (≥50 = +++)”.
